Measured values as given in publication PMC11117632.

How the values were obtained:
[1] = test system: inactivated SARS-CoV-2 virus (whole virion) (SARS-CoV-2 strain CN2); assay: ELONA; conditions: binding buffer 50 mM HEPES pH 7.4, 100 mM NaCl, 5 mM KCl, 2 mM MgCl2, 1 mM CaCl2; room temperature in SELEX, ELONA temperature not stated
[2] = test system: inactivated SARS-CoV-2 virus (whole virion) (SARS-CoV-2 strain CN2); assay: ELONA competition; conditions: binding buffer 50 mM HEPES pH 7.4, 100 mM NaCl, 5 mM KCl, 2 mM MgCl2, 1 mM CaCl2; room temperature in SELEX, ELONA temperature not stated
[3] = test system: inactivated SARS-CoV-2 virus (whole virion) (SARS-CoV-2 strain CN2); assay: EIS; conditions: 5' SH, 3 x iSp18 spacer; binding buffer 50 mM HEPES pH 7.4, 100 mM NaCl, 5 mM KCl, 2 mM MgCl2, 1 mM CaCl2; room temperature in SELEX, ELONA temperature not stated

Sequence	Kd [1] [µM]	binding signal (% signal decrease) [2]	binding signal (% impedance decrease) [3]
GCAATGGTACGGTACTTCCATGGCTGGTGCTTGAGGTGTGTGTGGGGGTAGGGCCAAAAGTGCACGCTACTTTGCTAA [aptamer 6.9]	0.0096	56	–
GCAATGGTACGGTACTTCCATGGCTGGTGCTTGAGGTGTGTGTGGGGGTAGGGCCAAAAGTGCACGCTACTTTGCTAA [thiolated aptamer 6.9]	–	–	40
GCAATGGTACGGTACTTCCCGGGGCGGGCTGTCATGCCCATCCTACCGTGACCGCAAAAGTGCACGCTACTTTGCTAA [aptamer 6.8]	0.021	–	–
